Measurements taken from PMC6781908.

What was measured:
[1] = anti-GFP IP, anti-phosphotyrosine blot (autophosphorylation) from worms; details: glycan lost; control: wild-type DDR-2::GFP
[2] = GFP fluorescence in D-type motor axons; details: glycan lost; control: wild-type DDR-2::GFP

B1: DDR-2: N141A (protein)
parent chain: MKLLLYLFGVTFHSNTVVALELRECSHQLGMSNRKIRDEQISASSSFDLQSTGPQHARAHQESGSGAWCPKNQINSLSKEWLQISFSVDTVITSVETQGRFDDGRGMEYATAFKIQYWRPSLNAWASYKDDFELETIPANNDTEHAIRRHLDRAIIARRIRIVPVSNSTRTVCMRVEVFGCPFDDSLVFYNVDQGDLQSGISYHDFSYDGNLANSPHLTGGIGKLYDGEVGKNNVFVNHHKWVGWRRKRNGNVKLAFEFSELRNISGILIHTSNEFKKSAKAFSSATVLFSINGKDFSDTIVHFNNPEDTESEVPRWIRIPVNNRIAKVAKIRLNFGTDSDWLFISEVNFESNHTNIELLNDDVVIPDSVSYFSVTEHDDGTSMFAFIIFFFMFLIVAVIILTVLYRKREYRVKASSPSPNAKREILLTIDGNTIKHHVSPSTYQMARDNLQNALIEKMPMSPIISDYAEPDISVCSDVTANTPLLYGIDGPYDTQKRSNPLSSMVKYSDYGEVYCTTLPEIARDKLICVSRIGQGEFGEVDLCQLENRKVAVKKLHGISQADEFSFHREIRVLGSLKHPNVVEVVGVCTIQKPILCIMEYMENGDLKSYILKNPTIQTSQCISICTQLAAGLAYLESCNFVHRDIAARNCLVDGEGNVKIADFGMARSLYSQEYYKVEGKFVLPIRWMAWEALLLGKFSTASDVWGFGVTMWEIFSLCSEKPYSDMTDDDVVENLQSMSSTGSLKQVLSRPRMCPSKLYNEQILPCWNYESSRRPSFENVHLHLQSLVHTSPHIHF
enzymatic_activity [1]: no change
localisation_or_trafficking [2]: no change
